{"source": "the RNAGym collection of RNA variant scans (doi:10.1073/pnas.2313332121)", "parents": {"B1": {"name": "TPR t1 (parent)", "chain": "GACCAAUCUGCCCUCAGAGCUCGAGAACAUCUUCGGAUGCAGAGGAGGCAGGCUUCGGUGGCGCGAUAGCGCCAACGUCCUCAACCUCCAAUGCAUCCCACCACAUGAUGAUGCCUGAAGAGCCUUGGUUUUUUG"}}, "data": [{"variants_of": "B1", "assay": "polymerase ribozyme fitness, log enrichment relative to wild type (log ratio); higher = more active; in vitro selection for triplet polymerase activity", "how_it_was_run": "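Streptavidin-bead capture of gel-excised extended constructs, followed by RT-PCR, closed a single triplicate in vitro selection round. That round began by annealing PCR-built, transcribed mutant libraries of each subunit of a heterodimeric triplet polymerase ribozyme with a biotinylated primer, the partner subunit and triplets, then incubating them frozen at −7 °C. After Illumina sequencing of inputs and outputs, genotypes needed ≥10 input reads and ≥1 read per output. Fitness is the base-2 logarithm of genotype enrichment over wild-type enrichment, using inverse-variance-weighted replicate averages.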", "values": [{"variant": "GACCAAUUUGCACUCAGAUCUCGAGAACAUCUUCGGAUGCAGAGGAGGCAGGCUUCGGCGGCGCGAUAGCGCCAUCGUCCUCAACCUCCAAUGCAUCCCACCACAUGAUGAUGCCUGAAAAGCCUUGGUUUUUUG", "note": "[C8U C12A G19U U59C A75U G120A]", "polymerase ribozyme fitness (log ratio)": -1.37}, {"variant": "GACCAAUUUGCUCUCAGAGCUCGAGAACAUCUUCGGAUGCAGAGGAGGCAGGCUUCGGUGGCGCGAUAGCGCCAACGUCCUCAACCUCCAAUGCAUCCCAGCACAUGAUGAUGCCUGAAGCGCCUUGGUUUUUUG", "note": "[C8U C12U C101G A121C]", "polymerase ribozyme fitness (log ratio)": -0.571}, {"variant": "GACCAAUUUGCACUCAGAGCUCGAGAACAUCUUCGGAUGCAGAGGAGGCAGGCUUCGGUGGCGCGAUAGCGCCAACGUCCUCACCCUCCAAUGCAUCCCACCACAUGAUGAUGCCCGAAGAGCCUUGGUUUUUUG", "note": "[C8U C12A A84C U116C]", "polymerase ribozyme fitness (log ratio)": 0.149}, {"variant": "GACCAAUUUGCCGUCAGAGCUCGAGAACAUCUUCGGAUGCAGAGGAGGCAGGCUUCGGUGGCGCGAUAGCGCCAACGUCCUCAACCUCCAAUGCAUCCCACCACAUGAUUAUGCCUGAAGAGCCUUGGUUUUUUG", "note": "[C8U C13G G110U]", "polymerase ribozyme fitness (log ratio)": -1.09}, {"variant": "GACCAAUGUGCCCUCAGAGCUCGAGAACAUCUUCGGAUGCAGAGGAGGCAGGCUUCGGUGGCGCGAUAGCGCCAACGUCCUCAACCUCCAAUGCAUCCCACCACAGGAUGAUGUCUGAAGAGCCUUGGUUUUUUG", "note": "[C8G U106G C114U]", "polymerase ribozyme fitness (log ratio)": -1.28}, {"variant": "GACCAAUGUGCCCUCAGAGCUCGAGAACAUCCUCGGAUGCAGAGGAGGCAGGCUUCGGUGGCGCGUUAGCGCCAACGUCCUCAACCUCCAAUGCAUCCCACCACAUGAUGAUGCCUGAAGAGCCUUGGUUUUUUG", "note": "[C8G U32C A66U]", "polymerase ribozyme fitness (log ratio)": -0.651}, {"variant": "GACCAAUUUGCCCUCAGAGCUCGAGAACAUCUUCGGAUGCCGAGGAGGCAGGCUUCGGUGGCGCGAUAGCGCAAACGUCCUCAACCUCCAAUGCAUCCCACCACAUGAUGAUGCCUGAAGAACCUUGGUUUUUUG", "note": "[C8U A41C C73A G122A]", "polymerase ribozyme fitness (log ratio)": 0.223}, {"variant": "GACCAAUGUGCCCUCAGAGCACGAGAACAUCUUCGGAUGCAGAGGAGGCAGGCCUCGGUGGCGCGAUAGCGACAACGUCCUCAACCUCCAAUGCAUCCCACCACAUGAUGAUGCCUGAAGAGCCUUGGUUUUUUG", "note": "[C8G U21A U54C C72A]", "polymerase ribozyme fitness (log ratio)": 0.0731}, {"variant": "GACCAAUUUGCCCUGAGAGCUCGAGAACAUCUUCGGAUGCAGAGGUGGCAGGCUUCGGUGGCGCGAUAGCGCCAACGUCCUCAACCUCCAAUGCAUCCCACCACAUGAUGAUACCUGAAGAGCCUUGGUUUUUUG", "note": "[C8U C15G A46U G113A]", "polymerase ribozyme fitness (log ratio)": -5.27}, {"variant": "GACCAAUUUGCCCUAAGAGCUCGAGAACAUCUUCGGAUGCAGAGGAGGCAGGCUUCGGUGGCGCGUUAGCGCCAACGUCCUCAACCUCCAAUGCAUCCCACCACAUGAUGAUGCCUGUAGCGCCUUGGUUUUUUG", "note": "[C8U C15A A66U A118U A121C]", "polymerase ribozyme fitness (log ratio)": -0.152}, {"variant": "GACCAAUGUGCCCUCAGAGCUCGAGAACACCUUCGGAUGCAGAGGAGGCAGGCUUCGGUCGCGCGAUAGCGCCAACGUCCUCAACCUCCAAUGCAUCCCACCACAUGAUGAUGCCUGAAGAGCCUUGGUUUUUUG", "note": "[C8G U30C G60C]", "polymerase ribozyme fitness (log ratio)": -4.49}, {"variant": "GACCAAUUUGCCCUCAGAGCUCGAGAUCAUCUUCGGAUGCAGAGGAGGCAGGCUUCGGUGGCGCGAUAGCGCCAAGGUCCUCAACCUCCAAUGCAGCCCACCACAUGAUGAUGCCUGAAGAGCCUUGGUUUUUUG", "note": "[C8U A27U C76G U96G]", "polymerase ribozyme fitness (log ratio)": -3.38}, {"variant": "GACCAAUUUGCCAUCAGAGCUCGAGAACAUCUUCGGCUGCAGAGGAGGCAGGCUUCGGUGUCGCGAUAGCGCCAACGUCCUCAACCGCCAAUGCAUCCCACUACAUGAUGAUGCCUGAAGAGCCUUGGUUUUUUG", "note": "[C8U C13A A37C G61U U87G C102U]", "polymerase ribozyme fitness (log ratio)": -1.74}, {"variant": "GACCAAUUUGCCCUCAGAGCUCGAGAACAUCUUCGGAUGCAGAGGAGGCAGGCUUCGGUGGCGCGAUAGCGCCAACGUCCUCAACCUCCAAUGCGUCCCACUACAAGAUGAUGCCUGAAGAGCCUUGGUUUUUUG", "note": "[C8U A95G C102U U106A]", "polymerase ribozyme fitness (log ratio)": -3.3}, {"variant": "GACCAAUUUGCCCUCAGUGCUCGAGAACAUCUUCGGAUGCAGAGGAGGCAGGCUUCAGUGGCGUGAUAGCGCCAACGUCCUCAACCUCCAAUGUAUCCCACCACAUGAUGAUGCCUGAAGAGCCUUGGUUUUUUG", "note": "[C8U A18U G57A C64U C94U]", "polymerase ribozyme fitness (log ratio)": -4.97}, {"variant": "GACCAAUUUGCUCUCAGAGCUCGAGAACAUCUUCGGAUGCAGAGGAGGUAGGCUUCGGUGGCGCGAUAGCGCCAACGUCCUCAACCUCCAAUGCAUCCCACCACAUGAUGAUGCCAGAAUAGUCUCGGUUUUUUG", "note": "[C8U C12U C49U U116A G120U C123U U126C]", "polymerase ribozyme fitness (log ratio)": -4.26}, {"variant": "GACCAAUGUGCCCUCAGAGCUCGAGAACAUCCUCGGAUGCAGAGGAGGCAGGCUUCGGUGGCGCGAUAGCGCCAACGUCCUCAACCUCCCAUGCAUCCCACCACAUGAUGAUGCCUGAAGAGCCUUGGUUUUUUG", "note": "[C8G U32C A90C]", "polymerase ribozyme fitness (log ratio)": -0.367}, {"variant": "GACCAAUUUGUCCUCAGAGCUCGAGAACUUCUUCGGAUGCAGAGGAGGCAGGCUUCGGUGGCGCGAUAGAGCCAACGUCCUCAACCUCCAAUGCAUCCCACCACAUGAUGAUGCCUGAAGAGCCUUGGUUUUUUG", "note": "[C8U C11U A29U C70A]", "polymerase ribozyme fitness (log ratio)": -3.03}, {"variant": "GACCAAUUUGGCCUCAGAGCUCGAGAACAUCUUCGGAUGCAGAGGAGGCAGGCUUCGGUGGCGCGAUAGCGCCAACGUCCUCAACCUCCAAUACAUCCCACCACAUGAUGAUGCCUGAAGAGCCUUGGUUUUUUG", "note": "[C8U C11G G93A]", "polymerase ribozyme fitness (log ratio)": -0.424}, {"variant": "GACCAAUUUGCCCUCAGCGCUCGAGAACAUCUUCGGAUGCUGAGGAGGCGGGCUUCGGUGGCGCGAUAGCGGCAACGUCCUCAACCUCCAAUGCAUCCCAUCACAUGAUGAUGCCUGAAGAGCCUUGGUUUUUUG", "note": "[C8U A18C A41U A50G C72G C101U]", "polymerase ribozyme fitness (log ratio)": -3.51}, {"variant": "GACCAAUUUGCCCUCAGAGCUCGAGAACAUCUUCGGAUGCAGAGGAGGCAGGCUUCGGUGGCGCGAUAGCGCCUACGUCCUCAACCUCCAAUGAAUCCCACCACAUGAUGAUGCCUGAAGAGCCUUGGUUUUUUG", "note": "[C8U A74U C94A]", "polymerase ribozyme fitness (log ratio)": -0.334}]}]}
